According to article PMC9039505, “Ethylene precisely regulates anthocyanin synthesis in apple via a module comprising MdEIL1, MdMYB1, and MdMYB17”:

Tests used:
[1] = molecular target: T1, MdMYB17 (apple, UniProt D9ZJ54 1-196); experiment: EMSA; LightShift Chemiluminescent EMSA kit; buffer, salt, pH and temperature not stated; cold competitor 200-300-fold; conditions: protein: recombinant; tags: His (pET-32a fusion); label: biotin; blunt
T1 sequence: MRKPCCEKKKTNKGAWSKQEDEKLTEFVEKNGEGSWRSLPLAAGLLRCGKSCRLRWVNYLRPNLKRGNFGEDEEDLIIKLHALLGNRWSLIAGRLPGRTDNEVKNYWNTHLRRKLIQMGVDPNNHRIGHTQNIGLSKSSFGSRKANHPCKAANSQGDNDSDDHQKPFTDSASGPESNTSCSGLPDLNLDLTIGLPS

[2] = molecular target: T1, MdMYB17; experiment: competition; unlabeled mutant competitor; LightShift Chemiluminescent EMSA kit; buffer, salt, pH and temperature not stated; cold competitor 200-300-fold; conditions: protein: recombinant; tags: His (pET-32a fusion); blunt
[3] = molecular target: T2, MdEIL1 (apple, UniProt D5L144 1-659); experiment: EMSA; LightShift Chemiluminescent EMSA kit; buffer, salt, pH and temperature not stated; cold competitor 200-300-fold; conditions: protein: recombinant; tags: His (pET-32a fusion); label: biotin; blunt
T2 sequence: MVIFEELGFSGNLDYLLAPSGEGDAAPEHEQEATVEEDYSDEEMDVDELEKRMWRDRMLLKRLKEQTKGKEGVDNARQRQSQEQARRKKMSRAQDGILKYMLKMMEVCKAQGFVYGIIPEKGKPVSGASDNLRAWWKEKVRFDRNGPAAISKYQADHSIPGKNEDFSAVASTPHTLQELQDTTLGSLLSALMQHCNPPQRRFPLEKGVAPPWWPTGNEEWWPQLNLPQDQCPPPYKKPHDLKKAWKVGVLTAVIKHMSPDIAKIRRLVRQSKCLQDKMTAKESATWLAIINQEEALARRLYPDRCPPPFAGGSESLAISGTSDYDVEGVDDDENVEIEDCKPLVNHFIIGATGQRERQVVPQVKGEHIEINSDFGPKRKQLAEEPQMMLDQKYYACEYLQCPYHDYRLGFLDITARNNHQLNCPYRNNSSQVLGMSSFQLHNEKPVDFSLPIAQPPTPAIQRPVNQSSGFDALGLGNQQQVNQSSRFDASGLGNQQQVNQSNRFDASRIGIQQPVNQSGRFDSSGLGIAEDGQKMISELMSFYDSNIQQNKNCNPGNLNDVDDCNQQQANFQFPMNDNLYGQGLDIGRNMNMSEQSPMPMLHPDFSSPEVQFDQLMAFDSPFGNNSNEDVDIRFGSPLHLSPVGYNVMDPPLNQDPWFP

[4] = molecular target: T3, MdMYB1 (apple, UniProt A0SQ35 1-243); experiment: as above; conditions: protein: recombinant; tags: His (pET-32a fusion); label: biotin; blunt
T3 sequence: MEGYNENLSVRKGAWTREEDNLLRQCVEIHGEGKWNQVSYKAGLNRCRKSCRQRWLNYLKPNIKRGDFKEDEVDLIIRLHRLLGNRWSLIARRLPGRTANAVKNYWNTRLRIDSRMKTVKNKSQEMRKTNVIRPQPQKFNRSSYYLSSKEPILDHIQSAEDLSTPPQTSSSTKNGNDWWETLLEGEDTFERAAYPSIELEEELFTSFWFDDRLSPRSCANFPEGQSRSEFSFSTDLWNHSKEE

| Binder | binding result [1] | binding result [2] | also measured |
| --- | --- | --- | --- |
| MdUFGT promoter MBS probe (dsDNA) DNA 1: GTCAAGTATGGTACAAACAACTGCAATAAAATATTGCCAC DNA 2: GTGGCAATATTTTATTGCAGTTGTTTGTACCATACTTGAC | binds |  |  |
| MdUFGT promoter MBS mutated (dsDNA) DNA 1: GTCAAGTATGGTACAAACGACTACAATAAAATATTGCCAC DNA 2: GTGGCAATATTTTATTGTAGTCGTTTGTACCATACTTGAC |  | no binding |  |
| MdDFR promoter MBS probe (dsDNA) DNA 1: AAACTCCCTAAATAAACCAGTTGTACTGGTGGATAGGCCT DNA 2: AGGCCTATCCACCAGTACAACTGGTTTATTTAGGGAGTTT | binds |  |  |
| MdDFR promoter MBS mutated (dsDNA) DNA 1: AAACTCCCTAAATAAACCGGTCGTACTGGTGGATAGGCCT DNA 2: AGGCCTATCCACCAGTACGACCGGTTTATTTAGGGAGTTT |  | no binding |  |
| MdMYB1 promoter MBS probe (dsDNA) DNA 1: AGACTGGTAGCTATTAACAACTGTTGGAATGTTTTAAACT DNA 2: AGTTTAAAACATTCCAACAGTTGTTAATAGCTACCAGTCT | binds |  |  |
| MdMYB1 promoter MBS mutated (dsDNA) DNA 1: AGACTGGTAGCTATTAACGACTATTGGAATGTTTTAAACT DNA 2: AGTTTAAAACATTCCAATAGTCGTTAATAGCTACCAGTCT |  | no binding |  |
| MdMYB17 promoter ATGTA1 probe (dsDNA) DNA 1: TCAAATTAATTATAAATTAAATGTAACCATGACAAGGAAAGTGTC DNA 2: GACACTTTCCTTGTCATGGTTACATTTAATTTATAATTAATTTGA |  |  | binding result [3]: binds |
| MdEIL1 promoter MRE2 probe (dsDNA) DNA 1: ATTGTTCTGTTTATTGTTTAGGTTAATCTGTTCTTATCTGC DNA 2: GCAGATAAGAACAGATTAACCTAAACAATAAACAGAACAAT | binds |  |  |
| MdMYB17 promoter MBS3 probe (dsDNA) DNA 1: AGATGTGTAGTTAAATTACCCAACTGTAAGTCAAGCGGAGTAGTCA DNA 2: TGACTACTCCGCTTGACTTACAGTTGGGTAATTTAACTACACATCT |  |  | binding result [4]: binds |
